As usually defined, the stoichiometry N is the number of molecules, sites or subunits per partner or assembly.

We go through one molecule from doi:10.1101/2025.09.18.677151.

This test has as its target T1, E. coli TatC (subunit of the overexpressed TatBC complex) (E. coli), P69423.
T1 chain: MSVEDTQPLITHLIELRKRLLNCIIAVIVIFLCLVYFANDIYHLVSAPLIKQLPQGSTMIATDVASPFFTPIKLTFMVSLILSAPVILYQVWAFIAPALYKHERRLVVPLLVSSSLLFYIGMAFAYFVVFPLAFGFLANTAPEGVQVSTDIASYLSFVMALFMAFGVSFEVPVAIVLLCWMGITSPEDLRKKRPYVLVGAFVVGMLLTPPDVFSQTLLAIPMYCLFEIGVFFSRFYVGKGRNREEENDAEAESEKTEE
As to the kind of experiment: cryo-EM structure. The note with it: remark: other sources report otherwise.

B1: E. coli TatC (subunit of the overexpressed TatBC complex), P69423 1-258 (natural protein)
chain: T1 chain
Take B1: the stoichiometry N stood at 3.
